# Reference: patent publication US20190359697A1 (Scripps Research, published 2019)
# Changes are numbered by the printed parent chain.
# B1: hFMCL2b-LCNT/hFMCH4c (Fab, V domains shown)
# VH: QVQLQESGPGLVKPSETLSVTCTVSGVSLPDYGVSWIRQPPGKGLEWLGVIWGSETTYYNSALKSRLTISKDNSKNQVSLKMSSLTAADTAVYYCAKHYYYGGSYAMDYWGQGTLVTVSS
# VL: DIQMTQSPSSLSASVGDRVTITCRASQDISKYLNWYQQKPGKAVKLLIYHTSRLHSGVPSRFSGSGSGTDYTLTISSLQPEDFATYFCQQGATLPYTFGQGTKLEIK
# B2: hFMCL2a-LCNT/hFMCH4b (Fab, V domains shown)
# VH: B1 VH with S61P, A62S
# VL: B1 VL with F87Y
# B3: hFMCL2c-LCNT/hFMCH4b (Fab, V domains shown)
# VH: B1 VH with S61P, A62S
# VL: B1 VL
# B4: hFMCL2a-LCNT/hFMCH4c (Fab, V domains shown)
# VH: B1 VH
# VL: B1 VL with F87Y
# B5: hFMCL2b-LCNT/hFMCH4b (Fab, V domains shown)
# VH: B1 VH with S61P, A62S
# VL: B1 VL
# B6: hFMCL2/H4z (antibody, V domains shown)
# VH: B1 VH with A62S
# VL: B1 VL with V44P, F87Y
# B7: hFMCL2/H4b WT (antibody, V domains shown)
# VH: B1 VH with S61P, A62S
# VL: B1 VL with V44P, F87Y
# B8: hFMCL2/H4b wt (antibody, V domains shown)
# VH: B1 VH with S61P, A62S
# VL: B1 VL with V44P, F87Y
# Target: CD19 (UniProt P15391)
# Assay: cell-based or functional assay
Binder,"EC50 of cytotoxicity (LDH), sCAR-T cells + switch vs CD19+ RS4;11, Average of the repeat assays [pM]","EC50 of cytotoxicity (LDH), sCAR-T cells + switch vs CD19+ RS4;11, assay DTR-5-15 (PBMC) [pM]","EC50 of cytotoxicity (LDH), sCAR-T cells + switch vs CD19+ RS4;11, assay DTR-5-16 (CD4:CD8) [pM]","EC50 of cytotoxicity (LDH), sCAR-T cells + switch vs CD19+ RS4;11, assay DTR-5-50 (PBMC) [pM]","EC50 of cytotoxicity (LDH), sCAR-T cells + switch vs CD19+ RS4;11, assay DTR-5-51 (CD4:CD8) [pM]"
B1,10.2,8.41,8.47,7.54,16.5

# Target: T1, CD19 (UniProt P15391 20-556, limits assumed)
# T1 sequence (looked up): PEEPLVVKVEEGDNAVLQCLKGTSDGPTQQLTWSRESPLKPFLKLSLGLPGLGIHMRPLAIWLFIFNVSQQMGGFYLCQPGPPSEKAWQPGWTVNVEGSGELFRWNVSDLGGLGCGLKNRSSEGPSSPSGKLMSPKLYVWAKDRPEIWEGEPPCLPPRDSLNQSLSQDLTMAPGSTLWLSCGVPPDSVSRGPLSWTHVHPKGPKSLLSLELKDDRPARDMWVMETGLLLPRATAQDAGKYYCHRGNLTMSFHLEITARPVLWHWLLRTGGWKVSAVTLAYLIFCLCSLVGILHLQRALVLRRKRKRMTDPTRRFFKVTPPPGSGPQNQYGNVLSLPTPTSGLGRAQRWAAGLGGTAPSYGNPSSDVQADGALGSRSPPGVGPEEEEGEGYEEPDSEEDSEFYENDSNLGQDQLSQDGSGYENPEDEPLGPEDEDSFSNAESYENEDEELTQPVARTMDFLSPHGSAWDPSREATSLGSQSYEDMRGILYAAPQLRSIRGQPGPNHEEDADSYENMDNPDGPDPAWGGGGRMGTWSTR
# Assay: cell-based or functional assay
Binder,"EC50 of cytotoxicity (LDH), sCAR-T cells + switch vs CD19+ RS4;11, Average of the repeat assays [pM]","EC50 of cytotoxicity (LDH), sCAR-T cells + switch vs CD19+ RS4;11, assay DTR-5-15 (PBMC) [pM]","EC50 of cytotoxicity (LDH), sCAR-T cells + switch vs CD19+ RS4;11, assay DTR-5-16 (CD4:CD8) [pM]","EC50 of cytotoxicity (LDH), sCAR-T cells + switch vs CD19+ RS4;11, assay DTR-5-50 (PBMC) [pM]","EC50 of cytotoxicity (LDH), sCAR-T cells + switch vs CD19+ RS4;11, assay DTR-5-51 (CD4:CD8) [pM]"
B1,4.6,4.57,4.61,3.78,5.45
B2,6.8,10.4,6.03,5.29,5.45
B3,5.18,4.04,3.25,3.78,9.65
B4,9.5,4.43,9.32,7.05,17.2
B5,6.21,5.17,5.78,3.93,9.96

# Target: T2, CD19 (UniProt P15391 20-556)
# T2 chain: T1 sequence (looked up)
# Assay: flow cytometry cell binding; FIG. 6
row,Binder,EC50 [pM]
1,B1,1260
2,B2,1610
3,B3,1380
4,B4,1700
5,B6,12400
6,B5,1220

# Target: T2, CD19
# Assay: flow cytometry cell binding; FIG. 7
row,Binder,EC50 [pM]
1,B2,2430
2,B7,5380
3,B3,1680
4,B5,2270

# Target: T2, CD19
# Assay: flow cytometry cell binding; FIG. 8
row,Binder,EC50 [pM]
1,B1,1590
2,B4,1810
3,B6,13100
4,B8,3840

# Target: T2, CD19
# Assay: flow cytometry cell binding; FIG. 5; WT switch (no PNE)
row,Binder,EC50 [pM]
1,B7,4130
